# Data: publication PMC5324060, “Evolutionary, computational, and biochemical studies of the salicylaldehyde dehydrogenases in the naphthalene degradation pathway” (Scientific Reports, 2017)
# Key:
# [1] = substrate: O=Cc1ccc2ccccc2c1; assay: Kinetics assay of wild-type recombinant SALDan (NADH appearance at 340 nm); type: biochemical, Alteromonas naphthalenivorans; conditions: other: wild-type; aldehyde varied at NAD^+ 100 μM, enzyme 0.1 μM; for NAD^+: SAL fixed 50 μM, NAD^+ 0–500 μM; 45.0 °C
# [2] = substrate: O=CCCCC=O; assay: as above; type: biochemical, Alteromonas naphthalenivorans; conditions: other: wild-type; aldehyde varied at NAD^+ 100 μM, enzyme 0.1 μM; for NAD^+: SAL fixed 50 μM, NAD^+ 0–500 μM; 45.0 °C
# [3] = substrate: O=Cc1ccccc1O; assay: as above; type: biochemical, Alteromonas naphthalenivorans; conditions: other: wild-type; aldehyde varied at NAD^+ 100 μM, enzyme 0.1 μM; for NAD^+: SAL fixed 50 μM, NAD^+ 0–500 μM; 45.0 °C
# [4] = substrate: O=Cc1ccccc1Cl; assay: as above; type: biochemical, Alteromonas naphthalenivorans; conditions: other: wild-type; aldehyde varied at NAD^+ 100 μM, enzyme 0.1 μM; for NAD^+: SAL fixed 50 μM, NAD^+ 0–500 μM; 45.0 °C
# [5] = substrate: NC(=O)c1ccc[n+]([C@@H]2O[C@H](COP(=O)([O-])OP(=O)(O)OC[C@H]3O[C@@H](n4cnc5c(N)ncnc54)[C@H](O)[C@@H]3O)[C@@H](O)[C@H]2O)c1; assay: as above; type: biochemical, Alteromonas naphthalenivorans; conditions: other: wild-type; aldehyde varied at NAD^+ 100 μM, enzyme 0.1 μM; for NAD^+: SAL fixed 50 μM, NAD^+ 0–500 μM; 45.0 °C
# [6] = target: the molecule itself; assay: SEC; purified SALDan on a Superdex 200 10/300 GL column, against standards ferritin, catalase, alcohol dehydrogenase, albumin, ovalbumin; one peak at approximately 160 kDa (monomer approximately 53 kDa)
# [7] = substrate: O=Cc1ccc(Cl)cc1; assay: purified protein, by the assay type; conditions: other: wild-type; aldehyde varied at NAD^+ 100 μM, enzyme 0.1 μM; for NAD^+: SAL fixed 50 μM, NAD^+ 0–500 μM; 45.0 °C
# [8] = substrate: O=Cc1cccc(Cl)c1; assay: purified protein, by the assay type; conditions: other: wild-type; aldehyde varied at NAD^+ 100 μM, enzyme 0.1 μM; for NAD^+: SAL fixed 50 μM, NAD^+ 0–500 μM; 45.0 °C
# [9] = substrate: O=Cc1ccc([N+](=O)[O-])cc1; assay: purified protein, by the assay type; conditions: other: wild-type; aldehyde varied at NAD^+ 100 μM, enzyme 0.1 μM; for NAD^+: SAL fixed 50 μM, NAD^+ 0–500 μM; 45.0 °C
# [10] = target: the molecule itself; assay: cross-linking; purified SALDan (0.5 mg/ml) with 0.1% aldehyde for various periods at 25 °C, quenched with 1 M Tris-HCl, SDS-PAGE and Coomassie staining
protein,measurement,setting,value
"Salicylaldehyde dehydrogenase from Alteromonas naphthalenivorans (SALDan) (enzyme, UniProt F5Z5S7 1-483, looked up, Salicylaldehyde dehydrogenase (EC 1.2.1.65) of Alteromonas naphthalenivorans, UniProt F5Z5S7; amplified from genomic DNA with primers from the ATG start codon to the stop codon; about 53 kDa on SDS-PAGE; Cloned between BamHI and HindIII of pET28a; also called SAL dehydrogenase; WT; source: E. coli BL21 (DE3), pET28a, purified (Ni-NTA column)) MKTQLIINNKFVDSESTNTFERYNQTLGEVVTSAAAASVADANNAAEVAQEAFKSWSKTGPTERRNVLLKAADILESKTAEFIDVMAKEVGSSGLWAGFNVMLAANVFREAASLATQIQGETIPTDKPGTLSMTIREPVGVILSIAPWNGPIVLAARAIAYPIVCGNSVVFKASEVSPKTHSLVVEAVIEAGLPAGVLNLLSNKPEDGESIVNALIEHKAVRRINFTGSTHVGRIIAQKAGYHLKRCLLELGGKSPQVILDDANLKEAAKAATFGSFLYQGQICMTTGRIIVDESVADEFGEIFAKLASKLPVGNPCDNNDCIVGPVVTQSSAERLNGYIDDALSKGAKLITGGKANGTVMKPTILDHVTSDMEIYHEESFGPLICMVRVKNADEALHTANDTPYGLSAAVFGKDVNRALQMAKDINAGHCHVNGTTVQNDAQAPYGGTKDSGWGRFDGRAVIDEFTELKWITIEPIVQDYPF",Km,[1],3.4 ± 0.5 µM
same,Vmax,[1],61.4 µmol/min/mg
same,kcat,[1],153 ± 14.4 s⁻¹
same,kcat/Km,[1],4.5e+07 ± 4.4e+06 M⁻¹ s⁻¹
same,Km,[2],560 ± 46.0 µM
same,Vmax,[2],11.6 µmol/min/mg
same,kcat,[2],29.6 ± 3.7 s⁻¹
same,kcat/Km,[2],53000 M⁻¹ s⁻¹
same,Km,[3],3.8 ± 0.5 µM
same,Vmax,[3],49.5 µmol/min/mg
same,kcat,[3],124 ± 13.6 s⁻¹
same,kcat/Km,[3],3.25e+07 ± 4.2e+06 M⁻¹ s⁻¹
same,Km,[4],3.2 ± 0.3 µM
same,Vmax,[4],45.6 µmol/min/mg
same,kcat,[4],114 ± 17.2 s⁻¹
same,kcat/Km,[4],3.57e+07 ± 4.5e+06 M⁻¹ s⁻¹
same,Km,[5],39.5 ± 3.2 µM
same,Vmax,[5],94.1 µmol/min/mg
same,kcat,[5],234 ± 24.2 s⁻¹
same,kcat/Km,[5],5.9e+06 ± 500000 M⁻¹ s⁻¹
same,stoichiometry N,[6],3 subunits
same,Km,[7],5.5 ± 1.1 µM
same,Vmax,[7],74.2 µmol/min/mg
same,kcat,[7],186 s⁻¹
same,kcat/Km,[7],3.37e+07 M⁻¹ s⁻¹
same,Km,[8],4.8 ± 0.7 µM
same,Vmax,[8],56.8 µmol/min/mg
same,kcat,[8],142 s⁻¹
same,kcat/Km,[8],2.96e+07 M⁻¹ s⁻¹
same,Km,[9],6.5 ± 0.9 µM
same,Vmax,[9],32.3 µmol/min/mg
same,kcat,[9],80.2 s⁻¹
same,kcat/Km,[9],1.23e+07 M⁻¹ s⁻¹
same,stoichiometry N,[10],3
